Results taken from the supplement of paper PMC10567573.

B1: ZNF649 (parent)
chain: YQAGKPDALTKLEQGEPLWTLEDE
B2: KIAA0774 (parent)
chain: FEDEVKRLGWQQQAELQELEERLQ

Variants of: B1
Assay: protein stability index of a GFP-peptide fusion (GPS, HEK-293T) (PSI 1-6); higher = more stable
Conditions: c terminus: a fixed tail appended
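Further: lentivirally expressed fusions sorted by FACS into six bins by GFP to DsRed ratio, PSI derived from sequencing read proportions per bin multiplied by bin number.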

Protein stability index of substitutions, site by site:
P17: A 4.86; W 3.36; F 3.68; K 3.97; G 3.47; H 4.1; L 3.95; Y 3.23; Q 4.47; E 4.21; N 4.41; M 4.1; R 3.94; C 3.46; I 3.22
L21: R 4.55; A 4.47; T 4.37; C 2.78; N 4.39; M 3.88; G 4.4; S 4.52; E 5.3; K 4.79; V 2.31; F 4.42; Q 4.23; H 5.03; D 4.89; I 4.06; W 3.52; Y 4.95
D23: M 2.99; H 4.13; V 3.81; L 2.97; S 4.11; T 3.32; N 3.25; P 3.78; I 1.84; Y 2.14; E 4.57; W 2.13; G 3.61; R 4.16; C 2.98; Q 3.86; F 3.38; K 3.51
T20: Y 4.7; F 4.22; G 4.24; K 4.13; L 3.15; P 4.58; D 5.06; C 2.62; H 4.57; R 4.34; W 2.67; V 4.41; S 3.73; N 4.42; M 5.05; I 3.96; E 5.14; Q 4.82; A 3.73
W19: C 4.86; P 5.62; V 5.72; H 5.72; T 5.61; A 5.52; E 5.34; I 5.21; K 4.98; S 5.57; N 5.2; F 4.86; M 4.87; D 5.31; L 4.92; Y 5.24; R 4.69
G15: I 4.15; A 3.84; L 4.25; N 4.11; R 2.82; S 4.21; W 3.39; H 4.31; P 3.89; Y 3.52; F 3.74; D 4.6; T 4.15; K 4.4; C 3.9; E 4.88; Q 4.31; M 3.97; V 4.62
E13: A 4.2; W 1.98; P 4.18; K 3.34; N 4.16; F 2.6; G 3.31; I 3.15; M 3.45; H 4.25; V 4.21; L 3.14; Y 3.12; R 3.26; T 3.86; C 3.2; S 4; Q 2.87; D 4.18
K11: T 4.09; W 2.86; Y 3.51; V 4.69; S 4.19
L18: I 3.53; F 3.54; H 5.06; Y 3.95; K 5.03; M 3.84; W 3.59; Q 5.19; S 5.32; G 4.83; P 5.35; C 4.91; A 4.5; E 5.49; T 5.06; D 5.11; R 4.96
Q14: W 4.44; I 4.44; S 4.13; C 4.66; A 4.11; G 4.92; K 4.28; V 4.71; R 3.8; F 3.89; P 4.63; N 4.07; L 4.07; H 4.14; T 4.71; D 4.67; M 4.17; Y 3.53
L12: R 4.4; Y 4.68; K 4.17; F 4.37; P 4.38; S 4.52; Q 4.56; N 4.78; A 4.95; C 5.11; I 4.56; V 4.32; G 4.83; M 4.54; H 4.73; T 4.22; W 3.75
E24: C 3.49; P 4.32; D 4.71; A 3.74; M 3.88; L 3.53; I 3.42; F 3.05; N 4.27; K 4.41; V 3.42; S 4.27; W 2.38; H 4.04; Q 4.02; R 4.48; G 3.87; T 4.42; Y 3.29
E22: L 3.6; S 2.75; K 3.46; H 3.3; A 4.8; M 2.92; Q 3.5; P 4.39; N 3.95; I 3.75; W 2.35; D 4.6; Y 2.62; C 3.45; V 2.88; G 3.88; T 4.28; F 2.05
E16: Q 3.76; T 3.97; L 3.66; P 3.93; H 3.32; S 4.38; M 1.92; Y 2.62; W 2.49; K 4.49; I 2.1; F 2; A 3.93; V 2.59; G 4.06; N 3.73; D 4.94

Variants of: B2
Assay: as above
Conditions: c terminus: a fixed tail appended

Protein stability index, by site and new letter:
E2: L 3.05; S 2.32; C 2.71; H 2.16; F 3.25; G 3.14; D 3.79; N 2.5; M 2.77; R 4.41; T 2.77; P 3.16; I 3.12; V 2.21; W 3.33; K 2.27; Y 3.56; A 2.71; Q 2.93
K6: A 4.54; D 3.75; C 3.87
D3: N 2.75; M 2.59; H 2.99; E 3.86; T 2.69; K 2.03; R 2.35; W 3.19; L 2.95; Q 3.29; P 3.42; F 2.72; Y 2.85; C 2.3; S 2.58; G 3.23; I 1.66; V 2.76; A 3.33
E4: C 2.93; G 3.21; L 2.47; Y 3.64; W 2.81; S 2.83; T 3.2; R 3.32; P 3.56; V 3.33; H 3.59; I 3.19; A 2.75; F 3.38; N 3.49; D 4.14; K 2.97; Q 3.26; M 3.12
F1: Y 3.38; R 3.41; M 3.68; P 4.12; I 3.86; N 4.32; T 2.85; W 3.93; E 4.66; L 4.06; S 2.67; G 3.56; V 3.66; Q 4.05; C 3.11; D 4.72; A 4.11; K 2.96; H 4.02
V5: E 4.44; I 3.87; L 3.4; Y 4.24; S 3.47; N 4.08; M 4.19; W 3.5; K 2.54; G 3.99; P 4.01; H 4.15; T 3.5; Q 4.13; C 3.6; D 4.37; A 3.86; F 2.77; R 2.75
